This note sets out measurements from paper PMC2852888.

The target in data set [1] is Max b/HLH/Z domain (amino acids 22-113) (UniProt P61244). The data set can be described thus: fluorescence polarisation.
Data set [2] shares this target. Briefly: fluorescence polarisation. The source holds these as a separate data set.
Data set [3] shares this target. Briefly: fluorescence polarisation. This is another data set of the same source.
Data set [4] shares this target. The data set can be described thus: fluorescence polarisation. This is another data set of the same source.
The target in data set [5] is Max b/HLH/Z monomer (UniProt P61244 22-113). The data set can be described thus: stopped-flow fluorescence anisotropy.
Chain of Max b/HLH/Z monomer (P61244 22-113): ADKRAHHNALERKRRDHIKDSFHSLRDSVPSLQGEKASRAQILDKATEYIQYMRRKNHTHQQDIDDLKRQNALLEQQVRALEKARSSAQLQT
The target of data set [6] is T1, c-Myc b/HLH/Z;Max b/HLH/Z (;, UniProt P01106-1;P61244 347-439;22-113, |). Briefly: stopped-flow fluorescence anisotropy.
T1 sequence (P01106 362-454, chain 1 of 2): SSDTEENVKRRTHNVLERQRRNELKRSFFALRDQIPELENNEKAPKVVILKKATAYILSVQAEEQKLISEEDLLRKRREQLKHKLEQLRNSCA
T1 sequence (P61244 22-113, chain 2 of 2): as the sequence (P61244 22-113) above
Data set [7] concerns the target T2, Mad1;Max b/HLH/Z (;, UniProt Q05195;P61244 1-221;22-113, |). The data set can be described thus: stopped-flow fluorescence anisotropy.
For data set [8], the target named is T3, Max b/HLH/Z (UniProt P61244 22-113). Briefly: stopped-flow fluorescence anisotropy.
T3 sequence (P61244 22-113): as above
The target of data set [9] is T1, c-Myc b/HLH/Z;Max b/HLH/Z. Briefly: stopped-flow fluorescence anisotropy. The source holds these as a separate data set.
Data set [10] concerns the target T3, Max b/HLH/Z. Briefly: stopped-flow fluorescence anisotropy. This is another data set of the same source.
Data set [11] has as its target T2, Mad1;Max b/HLH/Z. The data set can be described thus: stopped-flow fluorescence anisotropy. This is another data set of the same source.

Like-named read-outs stand apart in the source and are kept apart here.

Chain of Max b/HLH/Z domain (amino acids 22-113) (P61244 22-113): as above
T2 sequence (Q05195 whole entry, chain 1 of 2): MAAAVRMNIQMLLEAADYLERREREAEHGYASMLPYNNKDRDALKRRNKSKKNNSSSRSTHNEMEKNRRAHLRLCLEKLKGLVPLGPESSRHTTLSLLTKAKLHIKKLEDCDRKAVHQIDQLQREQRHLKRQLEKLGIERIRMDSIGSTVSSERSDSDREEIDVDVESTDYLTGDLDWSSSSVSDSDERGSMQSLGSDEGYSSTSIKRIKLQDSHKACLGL
T2 sequence (P61244 22-113, chain 2 of 2): as the sequence (P61244 22-113) above

With “c-Myc b/HLH/Z domain (amino acids 347-439) (domain or fragment)”, the kobs (association rate constant) in [1] worked out at 90 s⁻¹; in data set [2] it was 109 s⁻¹; in data set [3], 118 s⁻¹; in data set [4], 67 s⁻¹. In data set [3], this molecule returned an association rate constant with the Max·DNA complex of 126 s⁻¹. This molecule also showed a k2 (forward rate constant of the second step, from the intercept) in data set [3] of 91 s⁻¹.

B1: MLP E-box 16-mer, label not stated (dsDNA)
DNA 1: TAGGCCACGTGACCGG
DNA 2: CCGGTCACGTGGCCTA
With B1, the binding result in data set [5], in [6], in data set [7] and in data set [8] was “binds” in each case.

B2: MLP E-box 16-mer, FITC-labelled (dsDNA)
DNA 1: TAGGCCACGTGACCGG
DNA 2: CCGGTCACGTGGCCTA
In the case of B2, the binding result in data set [9], in [10] and in data set [11] was “binds” throughout.
